Test results as given in US20240301071A1 (Alector, published 2024).

Columns and labels:
[1] = target: T1, human SIRPA on human macrophages (primary monocyte-derived macrophages; U937 line) (human, UniProt P78324 31-504); test: cell-based or functional assay
[2] = target: T2, histidine-tagged human SIRPA (Sino Biological) (human, UniProt P78324 31-370); test: BLI (Octet RED96), antibody captured on anti-human IgG Fc sensor, His-tagged SIRPA in solution, 1:1 model
T2 construct: bought, soluble; also called histidine-tagged huSIRPA isoform 1; soluble SIRPA antigen; not shown: histidine tag
Description: Affinity measurements for the anti-SIRPA antibodies were performed as follows. Bio-layer interferometry (BLI) data were collected on a Pall ForteBio Octet RED96 instrument. Data analysis was performed using ForteBio Data Analysis Software, version 9.0. Standard kinetic buffer (PBS, 0.100 BSA, 0.02% Tween-20, pH 7.2) was used for the assay and for preparing reagents. […] Varying concentrations (0-200 nM) of histidine-tagged human SIRPA (Sino Biological, Beijing, China) were then bound to the captured anti-SIRPA surface (300 s association time, 600 s dissociation time). The resulting BLI signal was obtained as the difference in response from the reference (2.5 μg/mL IgG+0 nM SIRPA) sensor. […] Multi-concentration kinetic analysis was performed using a 1:1 interaction model to extract association and dissociation rate constants (ka and kd, respectively) for each antibody. Binding affinity constants (KD) were calculated from the ratio kd/ka.
Best-fit traces from the resulting sensorgrams were analyzed to calculate association rate, dissociation rate, and affinity values.

[3] = target: T3, human SIRPA v1 on BWZ cells (BWZ-huSIRPA) (human, UniProt P78324 31-504); test: flow cytometry competition on BWZ-huSIRPA v1 cells, competitor: fluorophore-labelled reference m3F9
T3 construct: also called BWZ cells overexpressing human SIRPA; BWZ-huSIRPA v1 cells
Excerpt: IC50 values provide another comparison of relative affinity.

[4] = target: T1, human SIRPA on human macrophages …; test: cell-based or functional assay; remark: listed apart in the source
[5] = target: T3, human SIRPA v1 on BWZ cells …; test: flow cytometry titration on BWZ cells overexpressing huSIRPA, 4 C
Description: Receptor bound antibodies were detected by staining cells with anti-mouse IgG Fc APC or anti-human IgG PE secondary antibody. Serial dilutions of the monoclonal antibodies were added to 10⁵ BWZ cells overexpressing huSIRPA (BWZ-huSIRPA) and allowed to achieve binding equilibrium at 4° C. After addition of fluorescently labeled secondary antibody and brief washing steps, mean fluorescent intensity (MFI) values as a function of titrated antibody concentration was recorded via FACS analysis. Curves were fit using nonlinear regression analysis with Graphpad Prism 6 software.

[6] = target: human SIRPA W315A (V5-tagged library clone on HEK-293T cells) (human, UniProt P78324 31-504); test: flow cytometry of Fab on HEK-293T cells expressing the mutant, normalised to wild-type SIRPA
Description: (§1) Epitope mapping of anti-SIRPA antibodies was performed using an alanine-scanning library created by shotgun mutagenesis of the human SIRPA cDNA sequence. […] Each of the residues representing the SIRPA extracellular domain (amino acids 31-374 of SEQ ID NO:1) was mutated, most to alanine, while alanine codons were mutated to serine.
(§2) The SIRPA mutant library clones, arrayed in a 384-well microplate, were transfected individually into HEK-293T cells and allowed to express for 22 hours. Antibodies were digested to generate Fabs, after which cells were incubated with Fabs diluted in 10% normal goat serum (NGS) (Sigma-Aldrich, St. Louis, MO). Prior to library screening, primary Fab concentrations were determined using an independent immunofluorescence titration curve against cells expressing wild type SIRPA to ensure that signals were within the linear range of detection. Fabs were detected using 7.5 μg/ml AlexaFluor488-conjugated secondary antibody (Jackson ImmunoResearch Laboratories, Westgrove, PA) in 10% NGS. Cells were washed twice with PBS and resuspended in Cellstripper (Cellgro, Manassas, VA) with 0.1% BSA (Sigma-Aldrich, St. Louis, MO). In some cases, higher stringency conditions were used, including increased pH, increased temperature, and increased dissociation time. Mean cellular fluorescence was detected using the Intellicyt high throughput flow cytometer (HTFC, Intellicyt, Albuquerque, NM). Fab reactivities against each mutant clone were calculated relative to wild-type SIRPA protein reactivity by subtracting the signal from mock-transfected controls, and normalizing to the signal from wild-type SIRPA transfected controls.

[7] = target: human SIRPA E297A (V5-tagged library clone on HEK-293T cells) (human, UniProt P78324 31-504); test: as above
Description: as §1, §2

[8] = target: human SIRPA Q281A (V5-tagged library clone on HEK-293T cells) (human, UniProt P78324 31-504); test: as above
Description: as §1, §2

[9] = target: human SIRPA W287A (V5-tagged library clone on HEK-293T cells) (human, UniProt P78324 31-504); test: as above
Description: as §1, §2

[10] = target: human SIRPA R295A (V5-tagged library clone on HEK-293T cells) (human, UniProt P78324 31-504); test: as above
Description: as §1, §2

[11] = target: human SIRPA Q284A (V5-tagged library clone on HEK-293T cells) (human, UniProt P78324 31-504); test: as above
Description: as §1, §2

[12] = target: human SIRPA V302A (V5-tagged library clone on HEK-293T cells) (human, UniProt P78324 31-504); test: as above
Description: as §1, §2

[13] = target: human SIRPA L285A (V5-tagged library clone on HEK-293T cells) (human, UniProt P78324 31-504); test: as above
Description: as §1, §2

[14] = target: human SIRPA G337A (V5-tagged library clone on HEK-293T cells) (human, UniProt P78324 31-504); test: as above
Description: as §1, §2

[15] = target: human SIRPA R282A (V5-tagged library clone on HEK-293T cells) (human, UniProt P78324 31-504); test: as above
Description: as §1, §2

T2 sequence (P78324 31-370 limits assumed): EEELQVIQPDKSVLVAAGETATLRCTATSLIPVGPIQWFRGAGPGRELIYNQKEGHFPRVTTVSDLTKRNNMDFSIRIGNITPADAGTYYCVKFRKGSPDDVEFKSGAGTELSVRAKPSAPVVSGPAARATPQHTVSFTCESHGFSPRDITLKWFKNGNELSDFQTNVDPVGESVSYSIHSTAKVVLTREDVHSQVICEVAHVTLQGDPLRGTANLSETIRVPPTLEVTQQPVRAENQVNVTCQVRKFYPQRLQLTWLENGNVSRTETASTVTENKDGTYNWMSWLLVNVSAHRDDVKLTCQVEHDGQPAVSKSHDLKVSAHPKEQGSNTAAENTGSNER
T1 sequence (P78324 31-370): as the sequence (P78324 31-370 limits assumed) above
human SIRPA G337A (V5-tagged library clone on HEK-293T cells), sequence (P78324 31-504 G337A): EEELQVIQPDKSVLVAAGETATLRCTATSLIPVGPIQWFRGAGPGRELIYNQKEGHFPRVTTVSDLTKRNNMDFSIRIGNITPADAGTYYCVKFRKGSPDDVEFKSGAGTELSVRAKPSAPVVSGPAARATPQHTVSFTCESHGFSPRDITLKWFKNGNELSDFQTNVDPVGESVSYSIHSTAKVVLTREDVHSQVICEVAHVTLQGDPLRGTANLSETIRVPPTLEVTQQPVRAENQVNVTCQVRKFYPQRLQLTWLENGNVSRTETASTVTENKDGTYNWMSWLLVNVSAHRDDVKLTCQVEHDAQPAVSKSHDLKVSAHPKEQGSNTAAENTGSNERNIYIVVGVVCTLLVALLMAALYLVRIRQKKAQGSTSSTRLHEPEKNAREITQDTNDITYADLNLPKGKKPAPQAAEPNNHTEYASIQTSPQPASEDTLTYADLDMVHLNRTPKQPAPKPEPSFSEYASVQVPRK
human SIRPA L285A (V5-tagged library clone on HEK-293T cells), sequence (P78324 31-504 L285A): as the sequence (P78324 31-504 G337A) above, with L255A, A307G counted along it
human SIRPA Q284A (V5-tagged library clone on HEK-293T cells), sequence (P78324 31-504 Q284A): as the sequence (P78324 31-504 G337A) above, with Q254A, A307G counted along it
human SIRPA R295A (V5-tagged library clone on HEK-293T cells), sequence (P78324 31-504 R295A): as the sequence (P78324 31-504 G337A) above, with R265A, A307G counted along it
T3 sequence (P78324 31-504): as the sequence (P78324 31-504 G337A) above, with A307G counted along it
human SIRPA V302A (V5-tagged library clone on HEK-293T cells), sequence (P78324 31-504 V302A): as the sequence (P78324 31-504 G337A) above, with V272A, A307G counted along it
human SIRPA R282A (V5-tagged library clone on HEK-293T cells), sequence (P78324 31-504 R282A): as the sequence (P78324 31-504 G337A) above, with R252A, A307G counted along it
human SIRPA W287A (V5-tagged library clone on HEK-293T cells), sequence (P78324 31-504 W287A): as the sequence (P78324 31-504 G337A) above, with W257A, A307G counted along it
human SIRPA W315A (V5-tagged library clone on HEK-293T cells), sequence (P78324 31-504 W315A): as the sequence (P78324 31-504 G337A) above, with W285A, A307G counted along it
human SIRPA Q281A (V5-tagged library clone on HEK-293T cells), sequence (P78324 31-504 Q281A): as the sequence (P78324 31-504 G337A) above, with Q251A, A307G counted along it
human SIRPA E297A (V5-tagged library clone on HEK-293T cells), sequence (P78324 31-504 E297A): as the sequence (P78324 31-504 G337A) above, with E267A, A307G counted along it

IC50 (read off the curve), SIRPA downregulation on primary human macrophages, Dnr. 517 [1] | Kd [2] | koff [2] | kon [2] | IC50 [3] | IC50 (read off the curve), SIRPA downregulation on primary human macrophages, Dnr 409 [4] | EC50 [5] | Binding Reactivity (% WT) [6] | Binding Reactivity (% WT) [7] | Binding Reactivity (% WT) [8] | Binding Reactivity (% WT) [9] | Binding Reactivity (% WT) [10] | Binding Reactivity (% WT) [11] | Binding Reactivity (% WT) [12] | Binding Reactivity (% WT) [13] | Binding Reactivity (% WT) [14] | Binding Reactivity (% WT) [15] | Binder
~0.1 nM | – | – | – | – | – | – | – | – | – | – | – | – | – | – | – | – | 3F9-22 SELF (antibody, human IgG1, kappa) heavy chain: not shown light chain: DIQLTQSPSSLSASVGDRVTITCRASKSVSSGGYSYMHWYQQKPGKAPKLLIYLASNLESGVPSRFSGSGSGTDFTLTISSVQPEDFATYYCQHNRELPVTFGQGTKLEIKRTVAAPSVFIFPPSDEQLKSGTASVVCLLNNFYPREAKVQWKVDNALQSGNSQESVTEQDSKDSTYSLSSTLTLSKADYEKHKVYACEVTHQGLSSPVTKSFNRGEC
– | 19 nM | 0.002 s⁻¹ | 110000 M⁻¹ s⁻¹ | 3.3 nM | ~0.2 nM | 1.06 nM | – | – | – | – | – | – | – | – | – | – | mAb 14.70.1 (antibody, human IgG4, V domains shown, also called h3F9 H1/L1; h3F9 IgG4) VH: EVQLLESGGGLVQPGGSLRLSCAASGFTFSSYAMSWVRQAPGKGLEWVSTISDYGGSYTYYADSVKGRFTISRDNSKNTLYLQMNSLRAEDTAVYYCAKPPYDDYYGGFAYWGQGTLVTVSS VL: DIQMTQSPSSLSASVGDRVTITCRASKSVSSSGYSYMHWYQQKPGKAPKLLIYLASNLESGVPSRFSGSGSGTDFTLTISSLQPEDFATYYCQHNRELPCTFGQGTKLEIK
– | – | – | – | – | – | – | 19 % WT | 5.3 % WT | 14.1 % WT | 2.4 % WT | 1.8 % WT | 6.5 % WT | 4.9 % WT | 17.9 % WT | 36.3 % WT | 4.7 % WT | 9C2 Fab (Fab, V domains shown) VH: EFQLQQSGAELVKPGASVKISCKASGYSLTGYNMNWVKQSRGKSLEWIGNINPHYGSSTYNQNFKDKATLTVDKSSSAAYMQFNSLTSEDSAVYYCAREGYDGVFDYWGQGTTLTVSS VL: QIVLSQSPAILSASPGEKVTMTCRASSSVSYMHWYQQKPGSSPKPWIYVTSNLASGVPTRFSGSGSGTSYSLTISRVEAEDAATYYCQQWSSNPRTFGGGTKLEIK
– | – | – | – | – | – | – | 117 % WT | 117 % WT | 151 % WT | 125 % WT | 121 % WT | 3.3 % WT | 92.3 % WT | 107 % WT | 17.9 % WT | 3.8 % WT | 3F9 Fab (Fab, V domains shown) VH: EVKLVESGGGLVKPGGSLKLSCAASGFTFSSYAMSWVRQTPEKRLEWVATISDYGGSYTYYPDSVKGRFTISRDNAKYTLYLQMSSLRSEDTALYYCARPPYDDYYGGFAYWGQGTLVTVSA VL: DIVLTQSPASLAVSLGQRATISCRASKSVSSSGYSYMHWYQQKPGQPPKLLIYLASNLESGVPARFSGSGSGTDFTLNIHPVEEEDAATYYCQHNRELPCTFGGGTKLEIK
